B1: GAS2-like protein 1, residues 209 to 276; numbered along this chain, Q99501 (parent)
chain: DELVREILGRCTCPDQFPMIKVSEGKYRVGDSSLLIFVRVLRSHVMVRVGGGWDTLEHYLDKHDPCRC
B2: Ankyrin-1, residues 1405 to 1484; numbered along this chain, P16157 (parent)
chain: MKMAVISEHLGLSWAELARELQFSVEDINRIRVENPNSLLEQSVALLNLWVIREGQNANMENLYTALQSIDRGEIVNMLE

Variants of: B1
Experiment: abundance fitness (aPCA) (normalised: wild type 0, dead -1); higher = more abundant; growth selection in yeast, the domain comes from the species named
Conditions: Homo sapiens

Abundance fitness, by site and new letter:
P65: R -0.625; W -0.857; G -0.837; S -0.898; V -0.904; N -0.498; A -0.591; K -0.734; C -0.819; H -0.605; Q -0.771; E -0.688; I -0.711; D -0.757; M -0.946; Y -0.826
C66: M -0.734; G -0.848; P -0.763; S -0.621; I -0.722; R -0.797; D -0.502; E -0.693; A -0.878; K -0.746; Q -0.608; F -0.928; T -0.751; Y -0.594; H -0.822; L -0.875; V -0.97; W -1.01
C68: T 0.225; A 0.177; D 0.046; P -0.331; Y 0.047; L 0.132; S 0.118; N -0.078; H 0.058; F 0.015; V 0.088; E -0.024; G 0.176; I -0.016; W -0.051
H58: L -0.673; R -0.116; M -0.514; K -0.138; P -0.933; V -0.688; G 0.008; W -0.752; F -0.877; Y -0.676; Q -0.34
R67: Y -0.995; S -0.789; Q -0.882; D -0.849; W -1.02; E -0.847; M -0.899; P -0.902; G -0.945; N -1.01; I -0.638; H -0.931; A -0.763; V -0.975; C -0.92; L -0.706; K -0.616
Y59: V -0.568; Q -0.55; I -0.962; G -0.904; K -0.782; M -0.767; N -1.02; A -0.927; D -1.03; H -1.03; F 0.139; T -0.862; E -0.946; L -0.749; S -0.583; P -0.954; R -0.886
L60: K -0.838; E -0.842; Q -0.708; Y -0.822; D -0.584; R -0.889; G -0.915; F -0.864; M -0.572; T -0.994; I -0.531; N -0.885; P -0.872; W -0.9; S -0.928
H63: Q -0.555; C -0.377; G -0.719; M -0.145; W -0.233; F -0.015; P -0.455; Y -0.081; V -0.017; K -0.077; T -0.322; L -0.18; E -0.11; A -0.434; R -0.162
K62: H -0.298; W -0.512; P -0.832; E 0.054; Y -0.242; G -0.337; C -0.25; A -0.069; R -0.065; V 0.092; N -0.091; L -0.004; Q 0.137; I -0.078; M -0.038; T -0.048; S -0.214; F -0.27; D -0.234
D64: I -0.75; H -0.511; L -0.812; F -0.419; A -1.03; C -0.319; S -1.02; P -0.824; G -0.792; Q -0.93; K -1.12; T -0.869; R -0.659; E -0.668; V -0.927; M -0.888; Y -0.936; N -0.86
D61: F -0.203; E 0.105; H -0.274; V -0.246; L -0.063; Y -0.068; P -0.729; A -0.074; S -0.146; Q -0.123; G -0.176; R -0.212; W -0.305; K -0.249; M -0.073; T -0.183; I -0.3; N -0.094

Variants of: B2
Experiment: as above
Conditions: Homo sapiens

Abundance fitness: each site, then its substitutions
H9: N -0.019; W -0.251; V -0.712; P -0.666; C 0.011; E -0.148; M -0.302; Y -0.388; T -0.285; D -0.826; S -0.868; F -0.249; L -0.438; R -0.33; A -0.429
M3: E -0.275; A -0.435; Q -0.197; K -0.155; L 0.208; R -0.045; N -0.748; I 0.127; C -0.385; V -0.024; F 0.105; P -0.474; G -0.533; D -0.332; Y -0.708; H -0.233; S -0.365
I6: V 0.224
M1: V 0
L10: N -0.69; G -0.971; K -0.509; R -0.895; A -0.884; Q -0.898; M -0.805; F -0.706; I -0.172; E -1.11; S -0.852; W -0.872
G11: R -0.41; S -0.616; M -0.447; P -0.997; N -0.161; I -0.726; T -0.371; W -0.893; L -0.447; E 0.195; A -0.47; C -0.737; D -0.171; H 0.028; K -0.362; Y -0.481; Q -0.276; F -0.581
A4: D 0.159; F -0.206; Q -0.041; W -0.397; E -0.142; T -0.029; S -0.259; G 0.084; V -0.35; H -0.622; N -0.035; R -0.071; K 0.148; P -0.612; M -0.434
K2: I -0.003; Q -0.155; N -0.081; R -0.045; Y -0.318; T -0.254; L -0.258; G -0.147; E 0.095; M -0.132; P -0.587; D -0.542; V -0.089; A -0.168; C -0.284; W 0.098; F -0.22; S -0.4; H -0.271
V5: Y 0.086; E -0.372; M -0.092; Q -0.483; D -0.605; R -0.521; H -0.216; C -0.18; F 0.103; T -0.266; I -0.337; K -0.279; A -0.231; L 0.079; G -0.592; N -0.606; S -0.361
E8: P -0.24; V -0.518; T -0.162; N -0.06; K 0.075; C -0.624; M -0.426; D -0.3; Y -0.722; G -0.273; Q 0.067; R -0.054; F -0.424; H -0.398; A -0.175; I -0.559; S -0.18; L -0.383
L12: D -0.124; C 0.3; E -0.499; A 0.213; F -0.069; G 0.104
S7: Y -0.242; G -0.176; K -0.786; R -0.504; A 0.109; I -0.396; T -0.226; F -0.126; M -0.852; Q -0.389; W -0.691; C -0.089; D -0.821; E -0.261; H -0.877; L -0.808
